Key:
[1] = molecular target: AD-PHF Tau (paired helical filament Tau isolated from Alzheimer's disease brains) (human (endogenous in AD brain))
[2] = molecular target: AD-PHF Tau (paired helical filament Tau isolated from Alzheimer's disease brains) (human (endogenous in AD brain)); assay: SPR; AD-PHF fraction 11 amine-coupled to a CM5 chip (about 500 RU); full-length IgG 1-300 nM as analyte, 180 s injection, 1200 s dissociation; BIAcore T200, 25 °C; HBS-EP+ with additional 150 mM NaCl and 1.25% CM-Dextran; extrinsic affinity; 1:1 binding or bivalent analyte model

AD-PHF Tau (paired helical filament Tau isolated from Alzheimer's disease brains) (human (endogenous in AD brain)), sequence (P10636 2-758): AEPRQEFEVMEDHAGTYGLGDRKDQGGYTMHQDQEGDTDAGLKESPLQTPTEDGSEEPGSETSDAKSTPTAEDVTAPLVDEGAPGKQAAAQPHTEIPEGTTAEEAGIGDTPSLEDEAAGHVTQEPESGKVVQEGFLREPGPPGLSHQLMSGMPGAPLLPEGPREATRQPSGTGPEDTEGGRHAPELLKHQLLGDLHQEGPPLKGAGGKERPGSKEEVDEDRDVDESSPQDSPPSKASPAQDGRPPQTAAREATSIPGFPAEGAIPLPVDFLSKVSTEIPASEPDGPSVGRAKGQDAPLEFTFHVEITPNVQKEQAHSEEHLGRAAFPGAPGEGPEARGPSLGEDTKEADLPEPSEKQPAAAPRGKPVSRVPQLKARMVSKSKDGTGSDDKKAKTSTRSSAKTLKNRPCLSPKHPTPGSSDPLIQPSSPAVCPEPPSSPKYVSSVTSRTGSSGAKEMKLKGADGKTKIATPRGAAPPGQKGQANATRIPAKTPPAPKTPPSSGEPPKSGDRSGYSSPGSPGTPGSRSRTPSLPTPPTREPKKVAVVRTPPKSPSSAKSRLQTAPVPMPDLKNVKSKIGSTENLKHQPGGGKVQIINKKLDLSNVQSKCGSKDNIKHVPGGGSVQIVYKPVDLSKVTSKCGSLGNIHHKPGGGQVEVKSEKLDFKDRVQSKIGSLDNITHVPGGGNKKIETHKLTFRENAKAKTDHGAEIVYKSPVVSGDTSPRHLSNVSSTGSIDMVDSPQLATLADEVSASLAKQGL

neutralisation of AD-PHF Tau seeding of HEK293 cells expressing P301S Tau (TR-FRET of aggregated Tau), antibody 0.1 to 300 nM; effect only at the highest doses [1] [%]	Kd [2] [nM]	koff [2] [s⁻¹]	kon [2] [M⁻¹ s⁻¹]	Binder
74	3.1	0.000117	40000	antibody B (antibody, V domains shown) VH: EVKVEESGGGLVQPGGSMKLSCVVSGFTFSNYWVNWVRQSPEKGLEWVAQIRLKSDNYATHYEESVKGRFTISRDDSKSSVYLQMNNLRAEDSGIYYCTNWEDYWGQGTTLTVSS VL: DIVLTQSPASLAVSLGQRATISCRASQSVSTSRYSYIHWYQQKPGQPPKLLIKYASNLESGVPARFSGSGSGTDFTLNIHPLEEEDAATYYCHHSWEIPLTFGAGTKLELK
–	25.8	0.00196	730000	antibody F (antibody, V domains shown) VH: EVQLVQSGAEVKKPGESLKISCKGSGYTFSNYWIEWVRQMPGKGLEWMGEILPGSDSIKYEKNFKGQVTISADKSISTAYLQWSSLKASDTAMYYCARRGNYVDDWGQGTLVTVSS VL: EIVLTQSPGTLSLSPGERATLSCRSSQSLVHSNQNTYLHWYQQKPGQAPRLLIYKVDNRFSGIPDRFSGSGSGTDFTLTISRLEPEDFAVYYCSQSTLVPLTFGGGTKVEIK
–	0.12	2.5e-05	230000	antibody A (antibody, V domains shown) VH: EVHLVESGGALVKPGGSLKLSCAASGFSFSKYGMSWVRQTPDKRLEWVATISSSGSRTYYPDSVKGQFTISRDNAKNTLYLQMSSLKSEDTAMYYCSISWDGAMDYWGQGTSVTVSS VL: DVLMTQTPLSLPVSLGDQASISCKSSQSIVHSNGNTYLEWYLQKPGQSPKLLVYKVSNRFSGVPDRFSGSGSGTDFTLKISRVEAEDLGTYYCFQGSLVPWAFGGGTKLEIK

Source: paper PMC6208734
